Measured values: US20250242021A1 (published 2025)

Legend:
[1] = biological target: T1, minor histocompatibility antigen (miHA) HA-1, 'H' epitope peptide on HLA-A*02:06 (human); experiment: activation reporter or marker
T1 peptide: VLHDDLLEA

[2] = biological target: T2, minor histocompatibility antigen (miHA) HA-1, 'H' epitope peptide on HLA-A*02:01 (human); experiment: killing
T2 peptide: VLHDDLLEA

[3] = biological target: T3, minor histocompatibility antigen (miHA) HA-1, 'R' epitope (non-target allelic variant) peptide on HLA-A*02:01 (human); experiment: killing
T3 peptide: VLRDDLLEA

B1: anti-HA-1 'H' epitope TCR (TCR, V domains shown)
Valpha: AQSVAQPEDQVNVAEGNPLTVKCTYSVSGNPYLFWYVQYPNRGLQFLLKYITGDNLVKGSYGFEAEFNKSQTSFHLKKPSALVSDSALYFCAVRAPTSGTYKYIFGTGTRLKVLA
Vbeta: DTGVSQDPRHKITKRGQNVTFRCDPISEHNRLYWYRQTLGQGPEFLTYFQNEAQLEKSRLLSDRFSAERPKGSFSTLEIQRTEQGDSAMYLCASSLVSGNEQFFGPGTRLTVL
binding result [1]: recognises | binding result [2]: recognises | binding result [3]: no recognition
